{
  "source": "the Human Domainome abundance scans (Beltran et al. 2025)",
  "parents": {"B1": {"name": "Protein C-ets-1, residues 55 to 135; numbered along this chain, P14921 (parent)", "chain": "GFTKEQQRLGIPKDPRQWTETHVRDWVMWAVNEFSLKGVDFQKFCMNGAALCALGKDCFLELAPDFVGDILWEHLEILQKE"}},
  "note": "± gives the uncertainty stated by the source.",
  "data": [
    {"variants_of": "B1", "assay": "abundance fitness (aPCA) (normalised: wild type 0, dead -1); higher = more abundant; growth selection in yeast, the domain comes from the species named", "settings": "Homo sapiens", "values": [
      {"variant": "GFTKEQQRLGIPKDPRYWTETHVRDWVMWAVNEFSLKGVDFQKFCMNGAALCALGKDCFLELAPDFVGDILWEHLEILQKE", "note": "[Q17Y]", "abundance fitness": "-0.154 ± 0.14"},
      {"variant": "GFTKEQQRLGIPKDPRGWTETHVRDWVMWAVNEFSLKGVDFQKFCMNGAALCALGKDCFLELAPDFVGDILWEHLEILQKE", "note": "[Q17G]", "abundance fitness": "-0.159 ± 0.033"},
      {"variant": "GFTKEQQRLGIPKDPRCWTETHVRDWVMWAVNEFSLKGVDFQKFCMNGAALCALGKDCFLELAPDFVGDILWEHLEILQKE", "note": "[Q17C]", "abundance fitness": "-0.034 ± 0.07"},
      {"variant": "GFTKEQQRLGIPKDPRVWTETHVRDWVMWAVNEFSLKGVDFQKFCMNGAALCALGKDCFLELAPDFVGDILWEHLEILQKE", "note": "[Q17V]", "abundance fitness": "0.002 ± 0.036"},
      {"variant": "GFTKEQQRLGIPKDPRDWTETHVRDWVMWAVNEFSLKGVDFQKFCMNGAALCALGKDCFLELAPDFVGDILWEHLEILQKE", "note": "[Q17D]", "abundance fitness": "0.016 ± 0.07"},
      {"variant": "GFTKEQQRLGIPKDPRHWTETHVRDWVMWAVNEFSLKGVDFQKFCMNGAALCALGKDCFLELAPDFVGDILWEHLEILQKE", "note": "[Q17H]", "abundance fitness": "-0.115 ± 0.069"},
      {"variant": "GFTKEQQRLGIPKDPRLWTETHVRDWVMWAVNEFSLKGVDFQKFCMNGAALCALGKDCFLELAPDFVGDILWEHLEILQKE", "note": "[Q17L]", "abundance fitness": "-0.088 ± 0.045"},
      {"variant": "GFTKEQQRLGIPKDPRIWTETHVRDWVMWAVNEFSLKGVDFQKFCMNGAALCALGKDCFLELAPDFVGDILWEHLEILQKE", "note": "[Q17I]", "abundance fitness": "-0.114 ± 0.081"},
      {"variant": "GFTKEQQRLGIPKDPRTWTETHVRDWVMWAVNEFSLKGVDFQKFCMNGAALCALGKDCFLELAPDFVGDILWEHLEILQKE", "note": "[Q17T]", "abundance fitness": "0.033 ± 0.053"},
      {"variant": "GFTKEQQRLGIPKDPREWTETHVRDWVMWAVNEFSLKGVDFQKFCMNGAALCALGKDCFLELAPDFVGDILWEHLEILQKE", "note": "[Q17E]", "abundance fitness": "0.046 ± 0.053"},
      {"variant": "GFTKEQQRLGIPKDPRFWTETHVRDWVMWAVNEFSLKGVDFQKFCMNGAALCALGKDCFLELAPDFVGDILWEHLEILQKE", "note": "[Q17F]", "abundance fitness": "-0.1 ± 0.076"},
      {"variant": "GFTKEQQRLGIPKDPRNWTETHVRDWVMWAVNEFSLKGVDFQKFCMNGAALCALGKDCFLELAPDFVGDILWEHLEILQKE", "note": "[Q17N]", "abundance fitness": "-0.021 ± 0.072"},
      {"variant": "GFTKEQQRLGIPKDPRWWTETHVRDWVMWAVNEFSLKGVDFQKFCMNGAALCALGKDCFLELAPDFVGDILWEHLEILQKE", "note": "[Q17W]", "abundance fitness": "-0.148 ± 0.051"},
      {"variant": "GFTKEQQRLGIPKDPRPWTETHVRDWVMWAVNEFSLKGVDFQKFCMNGAALCALGKDCFLELAPDFVGDILWEHLEILQKE", "note": "[Q17P]", "abundance fitness": "-0.983 ± 0.14"},
      {"variant": "GFTKEQQRLGIPKDPRRWTETHVRDWVMWAVNEFSLKGVDFQKFCMNGAALCALGKDCFLELAPDFVGDILWEHLEILQKE", "note": "[Q17R]", "abundance fitness": "-0.058 ± 0.036"},
      {"variant": "GFTKEQQRLGIPKDPRAWTETHVRDWVMWAVNEFSLKGVDFQKFCMNGAALCALGKDCFLELAPDFVGDILWEHLEILQKE", "note": "[Q17A]", "abundance fitness": "0.013 ± 0.029"},
      {"variant": "GFTKEQQRLGIPKDPRMWTETHVRDWVMWAVNEFSLKGVDFQKFCMNGAALCALGKDCFLELAPDFVGDILWEHLEILQKE", "note": "[Q17M]", "abundance fitness": "0.014 ± 0.06"},
      {"variant": "GFTKEQQRLGIPKDPMQWTETHVRDWVMWAVNEFSLKGVDFQKFCMNGAALCALGKDCFLELAPDFVGDILWEHLEILQKE", "note": "[R16M]", "abundance fitness": "-0.029 ± 0.051"},
      {"variant": "GFTKEQQRLGIPKDPLQWTETHVRDWVMWAVNEFSLKGVDFQKFCMNGAALCALGKDCFLELAPDFVGDILWEHLEILQKE", "note": "[R16L]", "abundance fitness": "-0.025 ± 0.046"},
      {"variant": "GFTKEQQRLGIPKDPPQWTETHVRDWVMWAVNEFSLKGVDFQKFCMNGAALCALGKDCFLELAPDFVGDILWEHLEILQKE", "note": "[R16P]", "abundance fitness": "-0.643 ± 0.069"},
      {"variant": "GFTKEQQRLGIPKDPYQWTETHVRDWVMWAVNEFSLKGVDFQKFCMNGAALCALGKDCFLELAPDFVGDILWEHLEILQKE", "note": "[R16Y]", "abundance fitness": "-0.049 ± 0.11"},
      {"variant": "GFTKEQQRLGIPKDPQQWTETHVRDWVMWAVNEFSLKGVDFQKFCMNGAALCALGKDCFLELAPDFVGDILWEHLEILQKE", "note": "[R16Q]", "abundance fitness": "-0.006 ± 0.067"},
      {"variant": "GFTKEQQRLGIPKDPVQWTETHVRDWVMWAVNEFSLKGVDFQKFCMNGAALCALGKDCFLELAPDFVGDILWEHLEILQKE", "note": "[R16V]", "abundance fitness": "-0.055 ± 0.033"},
      {"variant": "GFTKEQQRLGIPKDPSQWTETHVRDWVMWAVNEFSLKGVDFQKFCMNGAALCALGKDCFLELAPDFVGDILWEHLEILQKE", "note": "[R16S]", "abundance fitness": "-0.096 ± 0.041"},
      {"variant": "GFTKEQQRLGIPKDPNQWTETHVRDWVMWAVNEFSLKGVDFQKFCMNGAALCALGKDCFLELAPDFVGDILWEHLEILQKE", "note": "[R16N]", "abundance fitness": "0.031 ± 0.082"},
      {"variant": "GFTKEQQRLGIPKDPIQWTETHVRDWVMWAVNEFSLKGVDFQKFCMNGAALCALGKDCFLELAPDFVGDILWEHLEILQKE", "note": "[R16I]", "abundance fitness": "-0.038 ± 0.087"},
      {"variant": "GFTKEQQRLGIPKDPWQWTETHVRDWVMWAVNEFSLKGVDFQKFCMNGAALCALGKDCFLELAPDFVGDILWEHLEILQKE", "note": "[R16W]", "abundance fitness": "-0.107 ± 0.062"},
      {"variant": "GFTKEQQRLGIPKDPRQGTETHVRDWVMWAVNEFSLKGVDFQKFCMNGAALCALGKDCFLELAPDFVGDILWEHLEILQKE", "note": "[W18G]", "abundance fitness": "-0.992 ± 0.074"},
      {"variant": "GFTKEQQRLGIPKDPRQETETHVRDWVMWAVNEFSLKGVDFQKFCMNGAALCALGKDCFLELAPDFVGDILWEHLEILQKE", "note": "[W18E]", "abundance fitness": "-0.814 ± 0.086"},
      {"variant": "GFTKEQQRLGIPKDPRQCTETHVRDWVMWAVNEFSLKGVDFQKFCMNGAALCALGKDCFLELAPDFVGDILWEHLEILQKE", "note": "[W18C]", "abundance fitness": "-0.785 ± 0.13"},
      {"variant": "GFTKEQQRLGIPKDPRQDTETHVRDWVMWAVNEFSLKGVDFQKFCMNGAALCALGKDCFLELAPDFVGDILWEHLEILQKE", "note": "[W18D]", "abundance fitness": "-0.962 ± 0.24"},
      {"variant": "GFTKEQQRLGIPKDPRQATETHVRDWVMWAVNEFSLKGVDFQKFCMNGAALCALGKDCFLELAPDFVGDILWEHLEILQKE", "note": "[W18A]", "abundance fitness": "-0.967 ± 0.082"},
      {"variant": "GFTKEQQRLGIPKDPRQHTETHVRDWVMWAVNEFSLKGVDFQKFCMNGAALCALGKDCFLELAPDFVGDILWEHLEILQKE", "note": "[W18H]", "abundance fitness": "-1.05 ± 0.27"},
      {"variant": "GFTKEQQRLGIPKDPRQFTETHVRDWVMWAVNEFSLKGVDFQKFCMNGAALCALGKDCFLELAPDFVGDILWEHLEILQKE", "note": "[W18F]", "abundance fitness": "-1.11 ± 0.2"}
    ]}
  ]
}
